Percent inhibition of binding data for 2 substances are collected here from patent publication US20020042368A1.

In this experiment the target is α6β1. α6β4 (human) (UniProt P23229). The experiment is described as follows: flow cytometry on HMVEC-d; dis-Fc binding with 5-8 fold excess α6β1/α6β4 mAb (GoH3, 439-9B; competitor) vs control mAb.

Chain of ADAM-22dis-Fc (Fc fusion) (chain): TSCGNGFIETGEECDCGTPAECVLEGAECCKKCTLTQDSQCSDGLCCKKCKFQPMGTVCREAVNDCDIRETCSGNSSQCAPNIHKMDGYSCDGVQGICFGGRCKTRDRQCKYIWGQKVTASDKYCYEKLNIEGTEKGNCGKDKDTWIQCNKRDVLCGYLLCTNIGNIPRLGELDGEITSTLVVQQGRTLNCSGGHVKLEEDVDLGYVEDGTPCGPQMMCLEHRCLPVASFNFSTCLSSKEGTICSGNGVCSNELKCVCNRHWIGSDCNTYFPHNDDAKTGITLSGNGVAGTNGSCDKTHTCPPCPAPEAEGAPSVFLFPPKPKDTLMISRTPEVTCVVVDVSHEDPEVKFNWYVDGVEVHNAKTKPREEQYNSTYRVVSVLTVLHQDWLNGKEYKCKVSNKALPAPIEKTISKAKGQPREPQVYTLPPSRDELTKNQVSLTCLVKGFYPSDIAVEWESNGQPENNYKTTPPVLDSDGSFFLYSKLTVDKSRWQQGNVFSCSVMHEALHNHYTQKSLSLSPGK
Chain of ADAM-23dis-Fc (Fc fusion) (chain): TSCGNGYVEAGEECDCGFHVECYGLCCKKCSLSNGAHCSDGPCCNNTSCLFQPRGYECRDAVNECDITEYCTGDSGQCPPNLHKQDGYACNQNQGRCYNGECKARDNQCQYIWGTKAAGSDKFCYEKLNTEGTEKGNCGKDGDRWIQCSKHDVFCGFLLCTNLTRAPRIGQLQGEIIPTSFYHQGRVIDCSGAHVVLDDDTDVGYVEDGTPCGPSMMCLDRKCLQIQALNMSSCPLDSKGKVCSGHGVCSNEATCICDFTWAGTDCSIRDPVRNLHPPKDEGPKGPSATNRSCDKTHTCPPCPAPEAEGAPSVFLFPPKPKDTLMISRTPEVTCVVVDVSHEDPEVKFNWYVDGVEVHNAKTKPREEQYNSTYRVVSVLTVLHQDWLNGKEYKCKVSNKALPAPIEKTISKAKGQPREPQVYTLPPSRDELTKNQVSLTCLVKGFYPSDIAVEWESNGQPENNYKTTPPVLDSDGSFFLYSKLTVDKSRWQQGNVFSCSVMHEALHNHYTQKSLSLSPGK

With ADAM-23dis-Fc (Fc fusion), the percent inhibition of binding was 31%. Then ADAM-22dis-Fc (Fc fusion), with 32%.
